In IntAct's records for PubMed 16762039:

B1: Hypermethylated in cancer 1 protein (Homo sapiens), Q14526 (parent)
chain: MTFPEADILLKSGECAGQTMLDTMEAPGHSRQLLLQLNNQRTKGFLCDVIIVVQNALFRAHKNVLAASSAYLKSLVVHDNLLNLDHDMVSPAVFRLVLDFIYTGRLADGAEAAAAAAVAPGAEPSLGAVLAAASYLQIPDLVALCKKRLKRHGKYCHLRGGGGGGGGYAPYGRPGRGLRAATPVIQACYPSPVGPPPPPAAEPPSGPEAAVNTHCAELYASGPGPAAALCASERRCSPLCGLDLSKKSPPGSAAPERPLAERELPPRPDSPPSAGPAAYKEPPLALPSLPPLPFQKLEEAAPPSDPFRGGSGSPGPEPPGRPDGPSLLYRWMKHEPGLGSYGDELGRERGSPSERCEERGGDAAVSPGGPPLGLAPPPRYPGSLDGPGAGGDGDDYKSSSEETGSSEDPSPPGGHLEGYPCPHLAYGEPESFGDNLYVCIPCGKGFPSSEQLNAHVEAHVEEEEALYGRAEAAEVAAGAAGLGPPFGGGGDKVAGAPGGLGELLRPYRCASCDKSYKDPATLRQHEKTHWLTRPYPCTICGKKFTQRGTMTRHMRSHLGLKPFACDACGMRFTRQYRLTEHMRIHSGEKPYECQVCGGKFAQQRNLISHMKMHAVGGAAGAAGALAGLGGLPGVPGPDGKGKLDFPEGVFAVARLTAEQLSLKQQDKAAAAELLAQTTHFLHDPKVALESLYPLAKFTAELGLSPDKAAEVLSQGAHLAAGPDGRTIDRFSPT

Variants of: B1
Conditions: with ctbp2_mouse Ctbp2, P56546
ctbp2_mouse Ctbp2, P56546, sequence (P56546 whole entry): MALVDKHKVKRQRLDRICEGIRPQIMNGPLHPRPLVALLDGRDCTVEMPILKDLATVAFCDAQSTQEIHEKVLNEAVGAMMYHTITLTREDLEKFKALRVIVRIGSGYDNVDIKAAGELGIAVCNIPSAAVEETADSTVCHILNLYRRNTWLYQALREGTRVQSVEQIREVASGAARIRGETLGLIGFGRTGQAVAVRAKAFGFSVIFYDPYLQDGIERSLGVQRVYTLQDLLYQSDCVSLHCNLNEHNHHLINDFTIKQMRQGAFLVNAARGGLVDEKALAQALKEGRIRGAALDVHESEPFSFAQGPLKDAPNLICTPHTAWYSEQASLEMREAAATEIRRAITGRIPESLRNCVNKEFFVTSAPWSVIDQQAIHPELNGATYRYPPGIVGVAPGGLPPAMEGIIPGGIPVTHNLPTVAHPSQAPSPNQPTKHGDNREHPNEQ

Variant | effect of a mutation on the interaction
L244A | disrupting interaction

Variants of: B1
Conditions: with ctbp1_mouse Ctbp1, O88712

Variant | effect of a mutation on the interaction
L244A | disrupting interaction
